B1: Retinoic acid receptor alpha (Homo sapiens), P10276 (parent)
chain: MASNSSSCPTPGGGHLNGYPVPPYAFFFPPMLGGLSPPGALTTLQHQLPVSGYSTPSPATIETQSSSSEEIVPSPPSPPPLPRIYKPCFVCQDKSSGYHYGVSACEGCKGFFRRSIQKNMVYTCHRDKNCIINKVTRNRCQYCRLQKCFEVGMSKESVRNDRNKKKKEVPKPECSESYTLTPEVGELIEKVRKAHQETFPALCQLGKYTTNNSSEQRVSLDIDLWDKFSELSTKCIIKTVEFAKQLPGFTTLTIADQITLLKAACLDILILRICTRYTPEQDTMTFSDGLTLNRTQMHNAGFGPLTDLVFAFANQLLPLEMDDAETGLLSAICLICGDRQDLEQPDRVDMLQEPLLEALKVYVRKRRPSRPHMFPKMLMKITDLRSISAKGAERVITLKMEIPGSMPPLIQEMLENSEGLDTLSGQPGGGGRDGGGLAPPPGSCSPSLSPSSNRSSPATHSP
partner: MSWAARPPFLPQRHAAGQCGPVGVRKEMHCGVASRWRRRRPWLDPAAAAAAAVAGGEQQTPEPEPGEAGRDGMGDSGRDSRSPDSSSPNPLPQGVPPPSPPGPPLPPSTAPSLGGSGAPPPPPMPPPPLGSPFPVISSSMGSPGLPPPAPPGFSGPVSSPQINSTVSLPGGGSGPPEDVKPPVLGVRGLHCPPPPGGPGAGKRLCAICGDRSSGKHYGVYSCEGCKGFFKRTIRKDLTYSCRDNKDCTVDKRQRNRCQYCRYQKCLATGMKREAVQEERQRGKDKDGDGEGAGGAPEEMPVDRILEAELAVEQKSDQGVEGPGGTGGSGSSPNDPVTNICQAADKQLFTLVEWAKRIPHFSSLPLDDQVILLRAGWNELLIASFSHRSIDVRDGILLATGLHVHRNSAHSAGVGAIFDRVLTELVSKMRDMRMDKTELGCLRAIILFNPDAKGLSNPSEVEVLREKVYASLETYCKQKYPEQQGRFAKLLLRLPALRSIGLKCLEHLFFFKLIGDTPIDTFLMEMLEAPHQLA
B2: Melanoma-associated antigen 8 (Homo sapiens), P43361 (parent)
chain: MLLGQKSQRYKAEEGLQAQGEAPGLMDVQIPTAEEQKAASSSSTLIMGTLEEVTDSGSPSPPQSPEGASSSLTVTDSTLWSQSDEGSSSNEEEGPSTSPDPAHLESLFREALDEKVAELVRFLLRKYQIKEPVTKAEMLESVIKNYKNHFPDIFSKASECMQVIFGIDVKEVDPAGHSYILVTCLGLSYDGLLGDDQSTPKTGLLIIVLGMILMEGSRAPEEAIWEALSVMGLYDGREHSVYWKLRKLLTQEWVQENYLEYRQAPGSDPVRYEFLWGPRALAETSYVKVLEHVVRVNARVRISYPSLHEEALGEEKGV
partner: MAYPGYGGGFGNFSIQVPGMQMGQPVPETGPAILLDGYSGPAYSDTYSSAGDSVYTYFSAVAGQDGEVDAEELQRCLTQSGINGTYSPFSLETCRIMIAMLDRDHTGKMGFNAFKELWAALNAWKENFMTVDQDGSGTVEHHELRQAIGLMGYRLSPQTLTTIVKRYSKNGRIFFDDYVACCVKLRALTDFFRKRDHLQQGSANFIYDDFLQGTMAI
B3: Melanoma-associated antigen 8 (Homo sapiens), P43361 (parent)
chain: B2 chain
B4: Melanoma-associated antigen 8 (Homo sapiens), P43361 (parent)
chain: B2 chain
partner: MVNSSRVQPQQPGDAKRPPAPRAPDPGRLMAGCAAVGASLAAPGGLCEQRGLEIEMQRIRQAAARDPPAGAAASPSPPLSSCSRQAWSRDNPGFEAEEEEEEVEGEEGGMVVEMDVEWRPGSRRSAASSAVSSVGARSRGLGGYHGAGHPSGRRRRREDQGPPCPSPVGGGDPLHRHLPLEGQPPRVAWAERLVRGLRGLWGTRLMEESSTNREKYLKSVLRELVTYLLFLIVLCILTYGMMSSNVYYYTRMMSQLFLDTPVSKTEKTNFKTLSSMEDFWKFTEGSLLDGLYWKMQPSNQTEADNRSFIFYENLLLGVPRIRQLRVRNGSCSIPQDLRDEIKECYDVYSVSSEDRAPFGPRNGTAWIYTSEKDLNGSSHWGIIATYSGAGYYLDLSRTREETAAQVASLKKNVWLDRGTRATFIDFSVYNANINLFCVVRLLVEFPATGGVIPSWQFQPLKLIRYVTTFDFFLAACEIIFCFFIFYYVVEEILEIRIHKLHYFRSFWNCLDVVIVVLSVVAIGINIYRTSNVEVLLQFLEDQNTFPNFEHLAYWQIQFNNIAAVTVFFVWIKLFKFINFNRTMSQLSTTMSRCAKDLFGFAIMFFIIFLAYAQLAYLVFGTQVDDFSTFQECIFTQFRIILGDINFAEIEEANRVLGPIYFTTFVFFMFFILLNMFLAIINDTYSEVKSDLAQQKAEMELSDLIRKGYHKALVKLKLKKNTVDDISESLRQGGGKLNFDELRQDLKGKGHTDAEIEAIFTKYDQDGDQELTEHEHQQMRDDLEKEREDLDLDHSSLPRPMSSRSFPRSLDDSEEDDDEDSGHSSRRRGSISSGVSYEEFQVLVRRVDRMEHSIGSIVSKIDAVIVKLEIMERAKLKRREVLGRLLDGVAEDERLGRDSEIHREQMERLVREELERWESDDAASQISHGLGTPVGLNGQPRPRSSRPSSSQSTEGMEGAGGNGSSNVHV
B5: ADP/ATP translocase 3 (Homo sapiens), P12236 (parent)
chain: MTEQAISFAKDFLAGGIAAAISKTAVAPIERVKLLLQVQHASKQIAADKQYKGIVDCIVRIPKEQGVLSFWRGNLANVIRYFPTQALNFAFKDKYKQIFLGGVDKHTQFWRYFAGNLASGGAAGATSLCFVYPLDFARTRLAADVGKSGTEREFRGLGDCLVKITKSDGIRGLYQGFSVSVQGIIIYRAAYFGVYDTAKGMLPDPKNTHIVVSWMIAQTVTAVAGVVSYPFDTVRRRMMMQSGRKGADIMYTGTVDCWRKIFRDEGGKAFFKGAWSNVLRGMGGAFVLVLYDELKKVI

Variants of: B1
Settings: with rxrb_human RXRB

Row | Variant | effect of a mutation on the interaction
1 | MASNSSSCPTPGGGHLNGYPVPPYAFFFPPMLGGLSPPGALTTLQHQLPVSGYSTPSPATIETQSSSSEEIVPSPPSPPPLPRIYKPCFVCQDKSSGYHYGVSACEGCKGFFRRSIQKNMVYTCHRDKNCIINKVTRNRCQYCRLQKCFEVGMSKESVRNDRNKKKKEVPKPECSESYTLTPEVGELIEKVRKAHQETFPALCQLGKYTTNNSSEQRVSLDIDLWDKFSELSTKCIIKTVEFAKQLPGFTTLTIADQITLLKAACLDILILRICTRYTPEQDTMTFSDGLTLNRTQMHNAGFGPLTDLVFAFANQLLPLEMDDAETGLLSAICLICGDRQDLEQPDRVDMLQEPLLEALKVYVRKRRPSRPHMFLKMLMKITDLRSISAKGAERVITLKMEIPGSMPPLIQEMLENSEGLDTLSGQPGGGGRDGGGLAPPPGSCSPSLSPSSNRSSPATHSP [P375L] | disrupting interaction strength
2 | MASNSSSCPTPGGGHLNGYPVPPYAFFFPPMLGGLSPPGALTTLQHQLPVSGYSTPSPATIETQSSSSEEIVPSPPSPPPLPHIYKPCFVCQDKSSGYHYGVSACEGCKGFFRRSIQKNMVYTCHRDKNCIINKVTRNRCQYCRLQKCFEVGMSKESVRNDRNKKKKEVPKPECSESYTLTPEVGELIEKVRKAHQETFPALCQLGKYTTNNSSEQRVSLDIDLWDKFSELSTKCIIKTVEFAKQLPGFTTLTIADQITLLKAACLDILILRICTRYTPEQDTMTFSDGLTLNRTQMHNAGFGPLTDLVFAFANQLLPLEMDDAETGLLSAICLICGDRQDLEQPDRVDMLQEPLLEALKVYVRKRRPSRPHMFPKMLMKITDLRSISAKGAERVITLKMEIPGSMPPLIQEMLENSEGLDTLSGQPGGGGRDGGGLAPPPGSCSPSLSPSSNRSSPATHSP [R83H] | with no effect

Variants of: B2
Settings: with gran_human GCA

Row | Variant | effect of a mutation on the interaction
3 | MLLGQKSQRYKAEEGLQAQGEAPGLMDVQIPTAEEQKAASSSSTLIMGTLEEVTDSGSPSPPQSPEGASSSLTVTDSTLWSQSDEGSSSNEEEGPSTSPDPAHLESLFREALDEKVAELVRFLLRKYQIKEPVTKAEMLESVIKNYKNHFPDIFSKASECMQVIFGIDVKEVDPAGHSYILVTCLGLSYDGLLGDDQSTPKTGLLIIVLGMILMEGSCAPEEAIWEALSVMGLYDGREHSVYWKLRKLLTQEWVQENYLEYRQAPGSDPVRYEFLWGPRALAETSYVKVLEHVVRVNARVRISYPSLHEEALGEEKGV [R218C] | with no effect

Variants of: B3
Settings: with bex5_human BEX5, Q5H9J7
Sequence of bex5_human BEX5, Q5H9J7 (Q5H9J7 whole entry): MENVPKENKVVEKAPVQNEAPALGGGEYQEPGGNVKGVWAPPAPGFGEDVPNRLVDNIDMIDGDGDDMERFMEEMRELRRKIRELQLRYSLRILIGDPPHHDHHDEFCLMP

Row | Variant | effect of a mutation on the interaction
4 | MLLGQKSQRYKAEEGLQAQGEAPGLMDVQIPTAEEQKAASSSSTLIMGTLEEVTDSGSPSPPQSPEGASSSLTVTDSTLWSQSDEGSSSNEEEGPSTSPDPAHLESLFREALDEKVAELVRFLLRKYQIKEPVTKAEMLESVIKNYKNHFPDIFSKASECMQVIFGIDVKEVDPAGHSYILVTCLGLSYDGLLGDDQSTPKTGLLIIVLGMILMEGSCAPEEAIWEALSVMGLYDGREHSVYWKLRKLLTQEWVQENYLEYRQAPGSDPVRYEFLWGPRALAETSYVKVLEHVVRVNARVRISYPSLHEEALGEEKGV [R218C] | with no effect

Variants of: B4
Settings: with pkd2_human PKD2, Q13563

Row | Variant | effect of a mutation on the interaction
5 | MLLGQKSQRYKAEEGLQAQGEAPGLMDVQIPTAEEQKAASSSSTLIMGTLEEVTDSGSPSPPQSPEGASSSLTVTDSTLWSQSDEGSSSNEEEGPSTSPDPAHLESLFREALDEKVAELVRFLLRKYQIKEPVTKAEMLESVIKNYKNHFPDIFSKASECMQVIFGIDVKEVDPAGHSYILVTCLGLSYDGLLGDDQSTPKTGLLIIVLGMILMEGSCAPEEAIWEALSVMGLYDGREHSVYWKLRKLLTQEWVQENYLEYRQAPGSDPVRYEFLWGPRALAETSYVKVLEHVVRVNARVRISYPSLHEEALGEEKGV [R218C] | disrupting interaction strength

Variants of: B5
Settings: with ap2b1_human AP2B1, P63010
Sequence of ap2b1_human AP2B1, P63010 (P63010 whole entry): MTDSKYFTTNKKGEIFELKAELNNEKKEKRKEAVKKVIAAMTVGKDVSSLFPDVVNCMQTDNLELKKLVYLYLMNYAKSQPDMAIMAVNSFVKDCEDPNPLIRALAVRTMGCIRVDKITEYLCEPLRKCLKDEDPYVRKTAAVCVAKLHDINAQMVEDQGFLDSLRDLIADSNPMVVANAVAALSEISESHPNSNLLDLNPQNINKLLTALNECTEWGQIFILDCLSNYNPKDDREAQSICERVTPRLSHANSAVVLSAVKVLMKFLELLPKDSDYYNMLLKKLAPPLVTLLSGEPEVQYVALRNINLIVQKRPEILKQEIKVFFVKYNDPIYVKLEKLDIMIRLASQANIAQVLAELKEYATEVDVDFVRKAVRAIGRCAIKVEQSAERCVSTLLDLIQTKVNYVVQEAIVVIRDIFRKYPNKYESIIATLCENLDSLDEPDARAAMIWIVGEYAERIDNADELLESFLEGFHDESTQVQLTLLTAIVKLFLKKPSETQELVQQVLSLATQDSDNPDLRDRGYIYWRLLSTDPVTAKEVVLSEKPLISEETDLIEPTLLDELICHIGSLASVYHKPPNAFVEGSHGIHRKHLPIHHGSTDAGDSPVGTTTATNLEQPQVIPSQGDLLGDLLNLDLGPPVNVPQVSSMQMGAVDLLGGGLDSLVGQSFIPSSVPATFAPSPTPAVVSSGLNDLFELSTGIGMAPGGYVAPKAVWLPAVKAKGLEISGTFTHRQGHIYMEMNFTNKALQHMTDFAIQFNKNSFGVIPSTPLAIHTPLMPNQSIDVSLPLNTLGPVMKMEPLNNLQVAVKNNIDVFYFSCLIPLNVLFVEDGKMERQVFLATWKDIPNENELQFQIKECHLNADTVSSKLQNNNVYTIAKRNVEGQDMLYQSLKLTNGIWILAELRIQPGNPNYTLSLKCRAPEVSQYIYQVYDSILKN

Row | Variant | effect of a mutation on the interaction
6 | MTEQAISFAKDFLAGGIAAAISKTAVAPIERVKLLLQVQHASKQIAADKQYKGIVDCIVRIPKEQGVLSFWRGNLANVIRYFPTQALNFAFKDKYKQIFLGGVDKHTQFWRYFAGNLASGGAAGATSLCFVYPLDFARTRLAADVGKSGTEREFRGLGDCLVKITKSDGIRGLYQGFSVSVQGIIIYRAAYFGVYDTAKGMLPDPKNTHIVVSWMIAQTVMAVAGVVSYPFDTVRRRMMMQSGRKGADIMYTGTVDCWRKIFRDEGGKAFFKGAWSNVLRGMGGAFVLVLYDELKKVI [T221M] | with no effect
